Measured values taken from paper PMC3357421, “Conserved Orb6 Phosphorylation Sites Are Essential for Polarized Cell Growth in Schizosaccharomyces pombe” (PLoS ONE, 2012).

Target: T1, His6-HA-Nak1 (S. pombe, UniProt O75011 1-652)
T1 construct: Nak1, Ser/Thr kinase of fission yeast (Schizosaccharomyces pombe); HA-Nak1 inserted into pET33b; also called pET33b-His6-HA-Nak1; source: E. coli BL21, purified (NiNTA agarose)
T1 sequence (looked up): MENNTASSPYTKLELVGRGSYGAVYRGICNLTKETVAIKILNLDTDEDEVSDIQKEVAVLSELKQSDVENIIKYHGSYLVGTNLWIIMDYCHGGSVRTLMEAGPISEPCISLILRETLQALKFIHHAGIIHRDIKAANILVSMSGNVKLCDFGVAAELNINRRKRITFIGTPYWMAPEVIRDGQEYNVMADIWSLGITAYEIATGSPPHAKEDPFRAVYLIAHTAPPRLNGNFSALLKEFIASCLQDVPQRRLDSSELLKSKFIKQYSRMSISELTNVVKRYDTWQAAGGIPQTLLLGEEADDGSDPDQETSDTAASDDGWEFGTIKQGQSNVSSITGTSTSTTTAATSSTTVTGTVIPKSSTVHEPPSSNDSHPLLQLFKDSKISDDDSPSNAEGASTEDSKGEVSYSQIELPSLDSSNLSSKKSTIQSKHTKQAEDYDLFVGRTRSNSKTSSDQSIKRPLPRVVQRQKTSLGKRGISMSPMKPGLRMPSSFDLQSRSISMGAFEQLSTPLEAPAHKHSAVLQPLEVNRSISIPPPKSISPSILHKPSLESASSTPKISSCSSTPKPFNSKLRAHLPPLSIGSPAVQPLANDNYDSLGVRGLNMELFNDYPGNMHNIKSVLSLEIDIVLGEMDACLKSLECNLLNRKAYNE
Assay: pull-down; GST or GST-Orb6 bound to Glutathione Sepharose 4B beads incubated with His6-HA-Nak1 for 2 h; washed 3 times with 150 mM NaCl, 1 mM DTT, phosphate pH 7.3; western blot with anti-HA (12CA5)
Details: both partners purified

binding result: binds
B1: GST-Orb6 (enzyme, S. pombe, UniProt O13310 1-469, looked up)
chain: MDKNDYLHFERNPSLFPKSTLDKVQKTKKYIEHYYKVAVDHAVERNQRRINLEQRLATERGSEERKNRQLRASGEKESQFLRFRRTRLSLEDFSTIKVIGKGAFGEVRLVQKLDTGKIYAMKSLLKTEMFKRDQLAHVKAERDLLVESDSPWVVSLYYAFQDSLYLYLIMEFLPGGDLMTMLINYDTFSEDVTRFYMAECVLAIADVHRMGYIHRDIKPDNILIDRDGHIKLSDFGLSTGFYKQDQSASYMKPRTGNTVKRGQMVDAIWLTMSSKDKMATWKKNRRVMAYSTVGTPDYIAPEIFLQQGYGQDCDWWSLGAIMFECLIGWPPFCSENSHETYRKIINWRETLTFPNDIHLSIEARDLMDRLMTDSEHRLGRGGAIEIMQHPFFTGIDWDHIRETAAPFIPNLKSITDTHYFPVDELEQVPEQPVTQQPASVDPQTLEQTNLAFLGYTYKKFNYLTMKGAL
notes: Orb6, Ndr-related Ser/Thr kinase of fission yeast (Schizosaccharomyces pombe); PCR-amplified cDNA fragment encoding Orb6 in pGEX-5X-1 (a pGEX-6p-1 construct was also made); also called pGEX-5X-1-Orb6; source: E. coli BL21, purified (Glutathione Sepharose 4B)
